One data set deals with Akt1 (Mus musculus, UniProt P31750). Briefly: Ex vivo IP-kinase assay of Akt1 in mouse tissues. As to conditions: exogenous insulin ip.
A further data set concerns the target Akt3 (Mus musculus, UniProt Q9WUA6). Briefly: Ex vivo IP-kinase assay of Akt3 in mouse tissues. As to conditions: exogenous insulin ip (1 or 5 μg).
A short description of data set [1]: Blood glucose in nude mice. The note with it: 40 μg insulin ip in animals treated with 100 mpk AKTi. It counts as in vivo, mouse.
Data set [2] in a line: Plasma insulin in nude mice. As to conditions: 30 min after injection; for plasma insulin levels increase: no AKTi.
Data set [3] concerns Akt signaling (pAkt, S6 protein, 4EBP-1) in LNCaP and T47D cells. As to the kind of experiment: Western blot of Akt pathway phosphorylation in LNCaP and T47D cells. As to conditions: 3 hrs. (In general: Immunoblotting shows a protein as a band on a membrane.)

Akt1, sequence (P31750 whole entry): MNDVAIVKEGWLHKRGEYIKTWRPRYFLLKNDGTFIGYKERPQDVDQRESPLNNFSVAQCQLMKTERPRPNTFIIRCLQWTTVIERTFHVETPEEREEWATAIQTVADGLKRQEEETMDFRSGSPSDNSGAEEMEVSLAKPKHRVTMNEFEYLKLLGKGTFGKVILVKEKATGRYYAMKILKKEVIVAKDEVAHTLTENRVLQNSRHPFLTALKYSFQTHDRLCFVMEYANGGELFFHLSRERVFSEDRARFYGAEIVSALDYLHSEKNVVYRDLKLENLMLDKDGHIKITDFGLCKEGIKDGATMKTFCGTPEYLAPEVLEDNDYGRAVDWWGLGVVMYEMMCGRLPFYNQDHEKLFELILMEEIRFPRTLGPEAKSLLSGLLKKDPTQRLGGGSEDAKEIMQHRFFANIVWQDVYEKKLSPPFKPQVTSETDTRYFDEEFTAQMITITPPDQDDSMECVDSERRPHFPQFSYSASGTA
Akt3, sequence (Q9WUA6 whole entry): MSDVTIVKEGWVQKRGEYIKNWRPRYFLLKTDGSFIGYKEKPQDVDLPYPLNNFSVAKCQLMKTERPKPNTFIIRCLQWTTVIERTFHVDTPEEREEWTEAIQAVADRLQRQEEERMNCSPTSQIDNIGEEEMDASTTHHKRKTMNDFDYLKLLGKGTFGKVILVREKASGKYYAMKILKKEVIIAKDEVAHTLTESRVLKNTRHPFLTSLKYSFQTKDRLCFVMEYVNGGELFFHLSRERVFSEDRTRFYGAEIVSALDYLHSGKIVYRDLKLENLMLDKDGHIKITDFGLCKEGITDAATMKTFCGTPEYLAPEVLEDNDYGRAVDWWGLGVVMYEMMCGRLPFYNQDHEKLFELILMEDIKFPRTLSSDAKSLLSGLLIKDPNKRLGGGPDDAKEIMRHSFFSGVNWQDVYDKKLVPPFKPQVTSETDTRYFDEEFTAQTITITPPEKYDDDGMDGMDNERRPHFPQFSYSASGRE

As for “Insulin: Recombinant insulin obtained from Invitrogen, injected intraperitoneally”, the “induction of Akt1 activity in liver” value with Akt1 is given as ~10 fold. For the same compound, the “maximal increase of Akt3 activity in lung” value in the data set with Akt3 stood at 40%. Besides, the “effect on glucose levels” value in data set [1] is “only a minor effect on glucose levels”. For the same compound, the “plasma insulin levels increase” value in data set [2] (1 μg insulin ip) is “about 20 fold”; in data set [2] (5 μg insulin ip), ~100 fold. Further, the “Insulin, plasma” value in data set [2] (insulin 5.0 μg per mouse ip) is 77 ± 21 ng/mL.
For the compound `Cc1n[nH]c2ccc(-c3cncc(OC[C@@H](N)Cc4c[nH]c5ccccc45)c3)cc12` [A443654], in data set [3], the “blocking phosphorylation of S6 protein and 4EBP-1” value is recorded as “equally effective at blocking phosphorylation”; the “hyper-phosphorylation of Akt” value is on record as “feed-back hyper-phosphorylation”.

Source of the values: paper PMC2987445 (Cancer biology & therapy, 2010).
